The results in this text go back to PMC5052650.

In this test the target is ARTD2 N+WGR fragment (human). Nature of the test: SAXS; proteins without DNA; measured without chromatography at three different concentrations; MW from Porod volume divided by 1.7.

ARTD2 N+WGR fragment (domain or fragment), sequence (Q9UGN5 99-206): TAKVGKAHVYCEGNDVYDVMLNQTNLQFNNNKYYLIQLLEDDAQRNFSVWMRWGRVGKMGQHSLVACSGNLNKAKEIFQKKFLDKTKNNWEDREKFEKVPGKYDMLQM

By stoichiometry N is commonly meant the number of molecules, sites or subunits per partner or assembly. As to “ARTD2 N+WGR fragment (domain or fragment)”, the stoichiometry N amounted to 2.
